Molecular target: RIM1α C2B domain
Assay: AUC

Kd: 90 µM
stoichiometry N: 2
Substance: RIM1α C2B domain (domain or fragment)

From paper PMC2154361
